{"source": "patent US20190153113A1", "about": "“CD39 VASCULAR ISOFORM TARGETING AGENTS” (INNATE PHARMA, priority 2015, published 2019)", "key": {"[1]": {"molecular_target": "T1, Human CD39 (vascular CD39, NTPDase1, ENTPD1) expressed at the cell surface (human, UniProt P49961 1-510)", "T1 sequence": "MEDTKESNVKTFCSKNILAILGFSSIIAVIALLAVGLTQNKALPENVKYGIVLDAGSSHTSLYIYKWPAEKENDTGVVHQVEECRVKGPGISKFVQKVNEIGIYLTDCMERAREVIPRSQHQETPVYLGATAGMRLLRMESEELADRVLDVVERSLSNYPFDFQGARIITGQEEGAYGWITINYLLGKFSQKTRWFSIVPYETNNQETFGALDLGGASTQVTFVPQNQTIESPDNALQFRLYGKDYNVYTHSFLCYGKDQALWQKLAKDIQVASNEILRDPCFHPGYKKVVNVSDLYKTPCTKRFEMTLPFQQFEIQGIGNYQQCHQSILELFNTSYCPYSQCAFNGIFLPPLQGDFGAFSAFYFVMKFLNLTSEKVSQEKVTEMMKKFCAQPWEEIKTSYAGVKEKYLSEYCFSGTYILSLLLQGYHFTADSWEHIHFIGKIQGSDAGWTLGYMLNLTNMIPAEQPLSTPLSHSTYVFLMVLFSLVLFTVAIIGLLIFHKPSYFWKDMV", "assay": "cell-based or functional assay"}, "[2]": {"molecular_target": "T2, CD39 mutant 2A (V81S, E82A, R111A, V115A) (human, UniProt P49961 1-510)", "T2 construct": "Transfected in HEK293T cells", "T2 chain": "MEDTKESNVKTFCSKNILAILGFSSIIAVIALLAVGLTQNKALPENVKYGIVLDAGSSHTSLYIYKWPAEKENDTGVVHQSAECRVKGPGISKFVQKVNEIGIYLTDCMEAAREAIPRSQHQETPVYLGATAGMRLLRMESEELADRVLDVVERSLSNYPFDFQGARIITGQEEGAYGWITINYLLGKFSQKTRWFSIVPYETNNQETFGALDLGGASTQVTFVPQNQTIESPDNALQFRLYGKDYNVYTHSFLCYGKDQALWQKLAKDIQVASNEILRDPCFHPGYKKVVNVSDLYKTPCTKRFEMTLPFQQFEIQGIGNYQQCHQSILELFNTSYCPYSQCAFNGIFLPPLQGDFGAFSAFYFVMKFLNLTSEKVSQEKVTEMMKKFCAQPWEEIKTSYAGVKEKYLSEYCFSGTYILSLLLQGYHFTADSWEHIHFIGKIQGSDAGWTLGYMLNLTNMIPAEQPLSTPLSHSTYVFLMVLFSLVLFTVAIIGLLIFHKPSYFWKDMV", "assay": "flow cytometry, HEK293T cells transfected with mutant 2A"}, "[3]": {"molecular_target": "T3, Recombinant human CD39-L2 (NTPDase6, ENTPD6) (human, UniProt O75354 61-484, limits assumed)", "T3 construct": "Coated in ELISA", "T3 sequence": "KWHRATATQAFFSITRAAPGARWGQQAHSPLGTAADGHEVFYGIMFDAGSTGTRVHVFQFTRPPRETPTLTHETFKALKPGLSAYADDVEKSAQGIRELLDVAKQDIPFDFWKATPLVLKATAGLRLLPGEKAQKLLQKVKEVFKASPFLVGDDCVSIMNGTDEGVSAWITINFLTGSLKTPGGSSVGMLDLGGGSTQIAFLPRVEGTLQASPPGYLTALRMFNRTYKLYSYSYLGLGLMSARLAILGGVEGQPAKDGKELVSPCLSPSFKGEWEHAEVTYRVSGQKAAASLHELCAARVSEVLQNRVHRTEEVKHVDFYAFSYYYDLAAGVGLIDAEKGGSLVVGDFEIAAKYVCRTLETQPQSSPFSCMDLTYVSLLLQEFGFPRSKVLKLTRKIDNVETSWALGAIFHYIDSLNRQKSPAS", "assay": "ELISA on coated RechuCD39-L2, OD 450 nm [top panel CHS2-I-391]", "description": "Wells were washed in TBS Tween 20, and further saturated 2H at RT in TBS Blocking buffer. Dose range concentration of primary antibody was incubated in TBS blocking buffer for 2h at RT. Wells were washed in TBS Tween 20. […] Optical density was measured on Enspire at OD=450."}, "[4]": {"molecular_target": "T1, Human CD39 (vascular CD39, NTPDase1, …)", "assay": "flow cytometry on HEK cells expressing human CD39, antibody 99 nM to 0.045 nM (FIG. 1 legend says ELISA)", "description": "Briefly, 1×10⁵ HEK-huCD39or cynoCD39 cells were incubated with various concentration of unlabeled anti-CD39 antibody or isotype control (IC) from 99 nM to 0.045 nM, for 30 minutes at 4° C. After washes, cells were incubated with Goat anti-mouse H+L labeled secondary antibody for 30 min at 4° C."}, "[5]": {"molecular_target": "T4, human CD39 at cell surface (Homo sapiens, UniProt P49961)", "T4 construct": "cells that endogenously express CD39 at their surface, e.g. regulatory T (TReg) cells, B cells, cancer cells, lymphoma cells (e.g. Ramos cells); endogenous in cells; host or cells: Ramos human lymphoma cells", "T4 sequence (P49961 1-510)": "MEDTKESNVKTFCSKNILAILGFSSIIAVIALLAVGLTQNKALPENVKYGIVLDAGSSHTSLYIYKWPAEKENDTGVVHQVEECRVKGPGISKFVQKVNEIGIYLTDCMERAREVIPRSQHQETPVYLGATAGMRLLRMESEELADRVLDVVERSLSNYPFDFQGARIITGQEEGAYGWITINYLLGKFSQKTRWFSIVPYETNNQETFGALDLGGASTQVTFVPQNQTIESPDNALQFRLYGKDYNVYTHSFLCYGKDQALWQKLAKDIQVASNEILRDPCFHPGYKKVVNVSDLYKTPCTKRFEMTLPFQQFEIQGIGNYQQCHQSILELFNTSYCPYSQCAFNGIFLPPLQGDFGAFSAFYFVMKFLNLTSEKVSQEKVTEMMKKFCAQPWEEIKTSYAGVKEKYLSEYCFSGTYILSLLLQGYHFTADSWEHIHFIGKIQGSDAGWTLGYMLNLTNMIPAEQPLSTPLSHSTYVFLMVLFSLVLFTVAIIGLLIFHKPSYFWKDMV", "assay": "CD39 down-modulation / internalization on Ramos cells", "assay_type": "cell-based", "conditions": "Ramos human lymphoma cells, 10 μg/ml, 4° C. or 37° C."}, "[6]": {"assay": "Stability in reference formulation, thermal shift stability assay (aggregation temperature)", "assay_type": "physicochemical", "conditions": "in words", "description": "All antibodies were tested for stability in the following reference formulation at a concentration of approximatively 7 mg/mL: pH 6.0; histidine buffer (10 mM); sucrose (200 mM); NaCl (50 mM); Polysorbate 80 (PS80) (0.2 g/L). […] So for this study the concentration is set at 0.2 g/L.\nThe stability of the formulations was monitored in two storage conditions (at +5° C.±3° C. and at +40±3° C. For each study, 3 times point were performed: TO, T15D (15 days) and T1M (1 month). A freeze thaw (F/T) and a thermal shift stability assay (TSSA) were conducted for the format comparison. To perform F/T cycles, the samples were frozen at least 2 hours at −20° C. and thawed at least 1 hour at room temperature, the F/T cycle is repeated three times and samples are tested 24h after the last Freeze/Thaw cycle. At each time point, the following tests were performed: • Particulate Matter (MFI) • Visual Inspection (Appearance) • Impurities (SE-HPLC) • Turbidity (400 nm) • Protein Concentration (280 nm) (performed with Nanodrop, Thermo Fisher Scientific Inc.)\nAggregation temperature is correlated with the intrinsic stability. The higher the TAgg, the higher the stability of the protein. […]"}}}
{"molecule": "Antibody I-391, Fc silent recombinant chimeric human IgG1 with heavy chain N297Q mutation (antibody, V domains shown) VH: QIQLVQSGPELKKPGETVKISCKASGYTFRNYGMNWVKQAPGKGLKWMGWINTYTGEPTYADDFKGRFAFSLATSASTAYLQISNLKNEDTATYFCARKAYYGSNYYFDYWGQGTTLTVSS VL: DIVMTQSHKFMSTSVGDRVSITCKASQDVSTAVAWYQQKPGQSPKLLIYSASYRYTGVPDRFTGSGSGTDFTFTISTVQAEDLAVYYCQQHYTTPPYTFGGGTKLEIKR", "values": [{"measurement": "EC50 (inhibition of 50% of the enzymatic activity of CD39 expressed by 100,000 Ramos cells), AMP generated, Maldi TOF", "setting": "[1]", "value": 1.2, "unit": "nM"}, {"measurement": "binding result", "setting": "[2]", "value": "binds"}, {"measurement": "binding result", "setting": "[3]", "value": "no binding (tested: 50 ug/ml)"}, {"measurement": "EC50", "setting": "[4]", "value": 14.9, "unit": "nM"}]}
{"molecule": "I-392: anti-CD39 antibody, VH SEQ ID NO: 8 and VL SEQ ID NO: 9, chimeric human IgG1 with N297Q mutation (antibody, V domains shown) VH: QIQLVQSGPEVKKPRETVKISCKASGYTFTHYGMNWVKQAPGKGLKWMGWINTYTGEPTYADDFKGRFAFSLEASASTAYLQINNLKNEDTATYFCARRRYEGNYVFYYFDYWGQGTTLTVSS VL: DIQMTQSPASLSASVGETVTITCRASENIYSYFSWYQQKQGKSPQLLVYTAKTLAEGVPSRFSGSGSGTQFSLKINSLQPEDFGSYYCQHHYVTPYTFGGGTKLEIK", "values": [{"measurement": "CD39 down modulation / internalization", "setting": "[5]", "value": "do not induce CD39 down modulation nor CD39 internalization"}, {"measurement": "stability (aggregation)", "setting": "[6]", "value": "relatively low inherent stability"}]}
